We go through 36 variants from the Human Domainome abundance scans (Beltran et al. 2025).

± gives the uncertainty stated by the source.

To fix the notation:
B1: Gamma-crystallin C, residues 4 to 79; numbered along this chain, P07315 (parent)
chain: ITFYEDRAFQGRSYETTTDCPNLQPYFSRCNSIRVESGCWMLYERPNYQGQQYLLRRGEYPDYQQWMGLSDSIRSC

The data set covers variants of B1. The data set is described as follows: abundance fitness (aPCA) (normalised: wild type 0, dead -1); higher = more abundant; growth selection in yeast, the domain comes from the species named. Particulars: Homo sapiens.
For ITFYEDRAFQGRSYETTTDCPNLGPYFSRCNSIRVESGCWMLYERPNYQGQQYLLRRGEYPDYQQWMGLSDSIRSC [Q24G], the abundance fitness turned out to be 0.027 ± 0.074.

Consider ITFYEDRAFQGRSYETTTDCPNLEPYFSRCNSIRVESGCWMLYERPNYQGQQYLLRRGEYPDYQQWMGLSDSIRSC [Q24E], for which the abundance fitness was 0.125 ± 0.19.

For ITFYEDRAFQGRSYETTTDCPNLWPYFSRCNSIRVESGCWMLYERPNYQGQQYLLRRGEYPDYQQWMGLSDSIRSC [Q24W], the abundance fitness was 0.034 ± 0.075.

In the case of ITFYEDRAFQGRSYETTTDCPNLCPYFSRCNSIRVESGCWMLYERPNYQGQQYLLRRGEYPDYQQWMGLSDSIRSC [Q24C], the abundance fitness was -0.131 ± 0.21.

For the variant ITFYEDRAFQGRSYETTTDCPNLKPYFSRCNSIRVESGCWMLYERPNYQGQQYLLRRGEYPDYQQWMGLSDSIRSC [Q24K], the abundance fitness was -0.048 ± 0.12.

Consider ITFYEDRAFQGRSYETTTDCPNLDPYFSRCNSIRVESGCWMLYERPNYQGQQYLLRRGEYPDYQQWMGLSDSIRSC [Q24D], for which the abundance fitness was found to be 0.13 ± 0.47.

For the variant ITFYEDRAFQGRSYETTTDCPNLPPYFSRCNSIRVESGCWMLYERPNYQGQQYLLRRGEYPDYQQWMGLSDSIRSC [Q24P], the abundance fitness is -0.308 ± 0.21.

Take ITFYEDRAFQGRSYETTTDCPNLSPYFSRCNSIRVESGCWMLYERPNYQGQQYLLRRGEYPDYQQWMGLSDSIRSC [Q24S]: the abundance fitness was found to be 0 ± 0.11.

As to ITFYEDRAFQGRSYETTTDCPNLYPYFSRCNSIRVESGCWMLYERPNYQGQQYLLRRGEYPDYQQWMGLSDSIRSC [Q24Y], the abundance fitness was determined as 0.011 ± 0.24.

In the case of ITFYEDRAFQGRSYETTTDCPNLFPYFSRCNSIRVESGCWMLYERPNYQGQQYLLRRGEYPDYQQWMGLSDSIRSC [Q24F], the abundance fitness was -0.14 ± 0.19.

As to ITFYEDRAFQGRSYETTTDCPNLLPYFSRCNSIRVESGCWMLYERPNYQGQQYLLRRGEYPDYQQWMGLSDSIRSC [Q24L], the abundance fitness was 0.116 ± 0.12.

On to ITFYEDRAFQGRSYETTTDCPNLRPYFSRCNSIRVESGCWMLYERPNYQGQQYLLRRGEYPDYQQWMGLSDSIRSC [Q24R], for which the abundance fitness was 0.007 ± 0.075.

For ITFYEDRAFQGRSYETTTDCPNLVPYFSRCNSIRVESGCWMLYERPNYQGQQYLLRRGEYPDYQQWMGLSDSIRSC [Q24V], the abundance fitness was determined as 0.006 ± 0.071.

In the case of ITFYEDRAFQGRSYETTTDCPNLIPYFSRCNSIRVESGCWMLYERPNYQGQQYLLRRGEYPDYQQWMGLSDSIRSC [Q24I], the abundance fitness was -0.056 ± 0.21.

Turning to ITFYEDRAFQGRSYETTTDCPNLAPYFSRCNSIRVESGCWMLYERPNYQGQQYLLRRGEYPDYQQWMGLSDSIRSC [Q24A], the abundance fitness is -0.109 ± 0.082.

ITFYEDRAFQGRSYETTTDCPNLQKYFSRCNSIRVESGCWMLYERPNYQGQQYLLRRGEYPDYQQWMGLSDSIRSC [P25K]: the abundance fitness worked out at 0.008 ± 0.11.

Consider ITFYEDRAFQGRSYETTTDCPNLQVYFSRCNSIRVESGCWMLYERPNYQGQQYLLRRGEYPDYQQWMGLSDSIRSC [P25V], for which the abundance fitness came to 0.054 ± 0.087.

Take ITFYEDRAFQGRSYETTTDCPNLQGYFSRCNSIRVESGCWMLYERPNYQGQQYLLRRGEYPDYQQWMGLSDSIRSC [P25G]: the abundance fitness is 0.032 ± 0.073.

Consider ITFYEDRAFQGRSYETTTDCPNLQYYFSRCNSIRVESGCWMLYERPNYQGQQYLLRRGEYPDYQQWMGLSDSIRSC [P25Y], for which the abundance fitness was -0.257 ± 0.26.

With ITFYEDRAFQGRSYETTTDCPNLQDYFSRCNSIRVESGCWMLYERPNYQGQQYLLRRGEYPDYQQWMGLSDSIRSC [P25D], the abundance fitness is 0.323 ± 0.22.

In the case of ITFYEDRAFQGRSYETTTDCPNLQQYFSRCNSIRVESGCWMLYERPNYQGQQYLLRRGEYPDYQQWMGLSDSIRSC [P25Q], the abundance fitness was -0.05 ± 0.13.

For the variant ITFYEDRAFQGRSYETTTDCPNLQMYFSRCNSIRVESGCWMLYERPNYQGQQYLLRRGEYPDYQQWMGLSDSIRSC [P25M], the abundance fitness came to 0.005 ± 0.11.

Consider ITFYEDRAFQGRSYETTTDCPNLQCYFSRCNSIRVESGCWMLYERPNYQGQQYLLRRGEYPDYQQWMGLSDSIRSC [P25C], for which the abundance fitness worked out at 0.227 ± 0.19.

Take ITFYEDRAFQGRSYETTTDCPNLQSYFSRCNSIRVESGCWMLYERPNYQGQQYLLRRGEYPDYQQWMGLSDSIRSC [P25S]: the abundance fitness is 0.047 ± 0.066.

On to ITFYEDRAFQGRSYETTTDCPNLQTYFSRCNSIRVESGCWMLYERPNYQGQQYLLRRGEYPDYQQWMGLSDSIRSC [P25T], for which the abundance fitness came to 0.199 ± 0.11.

As to ITFYEDRAFQGRSYETTTDCPNLQAYFSRCNSIRVESGCWMLYERPNYQGQQYLLRRGEYPDYQQWMGLSDSIRSC [P25A], the abundance fitness is -0.002 ± 0.065.

On to ITFYEDRAFQGRSYETTTDCPNLQEYFSRCNSIRVESGCWMLYERPNYQGQQYLLRRGEYPDYQQWMGLSDSIRSC [P25E], for which the abundance fitness is 0.086 ± 0.12.

As to ITFYEDRAFQGRSYETTTDCPNLQLYFSRCNSIRVESGCWMLYERPNYQGQQYLLRRGEYPDYQQWMGLSDSIRSC [P25L], the abundance fitness amounted to 0.021 ± 0.098.

Regarding ITFYEDRAFQGRSYETTTDCPNLQFYFSRCNSIRVESGCWMLYERPNYQGQQYLLRRGEYPDYQQWMGLSDSIRSC [P25F], the abundance fitness is -0.076 ± 0.13.

For the variant ITFYEDRAFQGRSYETTTDCPNLQHYFSRCNSIRVESGCWMLYERPNYQGQQYLLRRGEYPDYQQWMGLSDSIRSC [P25H], the abundance fitness is -0.241 ± 0.37.

For the variant ITFYEDRAFQGRSYETTTDCPNLQIYFSRCNSIRVESGCWMLYERPNYQGQQYLLRRGEYPDYQQWMGLSDSIRSC [P25I], the abundance fitness was -0.174 ± 0.17.

As to ITFYEDRAFQGRSYETTTDCPNLQNYFSRCNSIRVESGCWMLYERPNYQGQQYLLRRGEYPDYQQWMGLSDSIRSC [P25N], the abundance fitness was determined as 0.048 ± 0.2.

As for ITFYEDRAFQGRSYETTTDCPNNQPYFSRCNSIRVESGCWMLYERPNYQGQQYLLRRGEYPDYQQWMGLSDSIRSC [L23N], the abundance fitness is -0.676 ± 0.26.

Turning to ITFYEDRAFQGRSYETTTDCPNAQPYFSRCNSIRVESGCWMLYERPNYQGQQYLLRRGEYPDYQQWMGLSDSIRSC [L23A], the abundance fitness is -0.173 ± 0.082.

In the case of ITFYEDRAFQGRSYETTTDCPNVQPYFSRCNSIRVESGCWMLYERPNYQGQQYLLRRGEYPDYQQWMGLSDSIRSC [L23V], the abundance fitness was determined as 0.005 ± 0.064.

For the variant ITFYEDRAFQGRSYETTTDCPNSQPYFSRCNSIRVESGCWMLYERPNYQGQQYLLRRGEYPDYQQWMGLSDSIRSC [L23S], the abundance fitness is -0.39 ± 0.12.
